Target: T1, recombinant human IL-1α (human, UniProt P01583 113-271)
T1 sequence (looked up): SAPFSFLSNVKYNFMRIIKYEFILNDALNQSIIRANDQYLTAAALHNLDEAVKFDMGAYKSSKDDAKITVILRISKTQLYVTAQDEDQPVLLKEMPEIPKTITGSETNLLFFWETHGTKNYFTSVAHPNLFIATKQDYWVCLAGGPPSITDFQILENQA
Experiment: cell-based or functional assay

neutralizing activity in the MRC-5 bioassay, fold less than the chimeric Abs: 3 fold
B1: hIL-1a/bDVD1-Ig (bispecific antibody, human IgG1, kappa)
heavy: not shown
light: NIVLTQSPASLAVSLGQRATISCRASESVDSYGNSYMHWYQQKPGQPPKLLIYLASNLESGVPARFSGSGSRTDFTLTIDPVEADDAATYYCQQNNEDPFTFGSGTKLEIKRNIQMTQTTSSLSASLGDRVTISCRASQDISNCLNWYQQKPDGTVKLLIYYTSRLHSGVPSRFSGSGSGTDYSLTISNLEQEDIATYFCQQGKTLPYAFGGGTKLEINRTVAAPSVFIFPPSDEQLKSGTASVVCLLNNFYPREAKVQWKVDNALQSGNSQESVTEQDSKDSTYSLSSTLTLSKADYEKHKVYACEVTHQGLSSPVTKSFNRGEC
